Source: patent US20040014638A1 (RIGEL PHARMACEUTICALS, published 2004)
Ends that are not written are not given here.

T1: human CLLD8 protein (human, UniProt Q96T68 1-719, limits assumed)
T1 sequence: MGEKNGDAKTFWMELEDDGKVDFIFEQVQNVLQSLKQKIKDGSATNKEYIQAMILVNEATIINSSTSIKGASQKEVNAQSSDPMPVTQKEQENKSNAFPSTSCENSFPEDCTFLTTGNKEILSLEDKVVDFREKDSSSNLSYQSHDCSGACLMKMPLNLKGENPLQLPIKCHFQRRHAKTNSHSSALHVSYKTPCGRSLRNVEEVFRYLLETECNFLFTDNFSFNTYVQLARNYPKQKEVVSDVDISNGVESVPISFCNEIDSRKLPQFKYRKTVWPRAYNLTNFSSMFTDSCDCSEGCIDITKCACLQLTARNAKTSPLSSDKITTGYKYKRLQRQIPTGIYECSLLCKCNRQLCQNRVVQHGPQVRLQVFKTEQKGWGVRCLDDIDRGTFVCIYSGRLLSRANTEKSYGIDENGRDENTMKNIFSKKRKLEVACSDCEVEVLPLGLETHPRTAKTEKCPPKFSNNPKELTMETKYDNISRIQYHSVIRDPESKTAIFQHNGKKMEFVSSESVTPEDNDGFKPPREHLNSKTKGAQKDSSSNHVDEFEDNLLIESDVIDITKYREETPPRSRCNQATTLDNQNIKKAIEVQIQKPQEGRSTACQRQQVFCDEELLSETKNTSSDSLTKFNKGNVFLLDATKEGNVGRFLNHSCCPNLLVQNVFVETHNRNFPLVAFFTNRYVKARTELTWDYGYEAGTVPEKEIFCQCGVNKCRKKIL


Columns and labels:
human CLLD8 protein [1] = biological target: T1, human CLLD8 protein; assay: cell-based or functional assay
human CLLD8 protein [2] = biological target: T1, human CLLD8 protein; assay: cell-based or functional assay; remark: listed apart in the source

| Binder | endogenous ε inhibition ratio (TAQMAN quantitative PCR of ε transcription product, +IL-4/+Dox to +IL-4/-Dox) (human CLLD8 protein [1]) | reporter ratio (original clone screen, +IL-4/+Dox over +IL-4/-Dox GFP fluorescence) (human CLLD8 protein [1]) | reporter ratio (GFP under germline ε promoter, A5T4 reporter line) (human CLLD8 protein [2]) |
| --- | --- | --- | --- |
| AMHGHHGWPWGMEQGCTPLG (also: expressed as BFP-peptide fusion via alpha-helical linker, bait in pGBKT7) [peptide CL02A3 wt] | 2.82 | 1.55 | 1.62 |
| AMHGHHGWPWGMEQGCTPAA [peptide CL02A3LG] | – | – | 1.99 |
| AMHGHHAAPWGMEQGCTPLG [peptide CL02A3GW] | – | – | 1.16 |
| RAHGHHGWPWGMEQGCTPLG [peptide CL02A3AM] | – | – | 1.03 |
